From the Human Domainome abundance scans (Beltran et al. 2025)
± gives the uncertainty stated by the source.

B1: Pituitary-specific positive transcription factor 1, residues 130 to 198; numbered along this chain, P28069 (parent)
chain: RELEKFANEFKVRRIKLGYTQTNVGEALAAVHGSEFSQTTICRFENLQLSFKNACKLKAILSKWLEEAE

Variants of: B1
Test: abundance fitness (aPCA) (normalised: wild type 0, dead -1); higher = more abundant; growth selection in yeast, the domain comes from the species named
Conditions: Homo sapiens

Point of comparison: RELEKFANEFKVRRIKLGYTQTNVGEALAAVHGSEFSQTTICRFENYQLSFKNACKLKAILSKWLEEAE, abundance fitness -0.428 ± 0.094. Against it:
- RELEKFANEFKVRRIKLGYTQTNVGEALAAVHGSEFSQTTICRFENWQLSFKNACKLKAILSKWLEEAE — lower, -0.789 ± 0.22
- RELEKFANEFKVRRIKLGYTQTNVGEALAAVHGSEFSQTTICVFENLQLSFKNACKLKAILSKWLEEAE — lower, -0.966 ± 0.24
- RELEKFANEFKVRRIKLGYTQTNVGEALAAVHGSEFSQTTICIFENLQLSFKNACKLKAILSKWLEEAE — lower, -0.888 ± 0.3
- RELEKFANEFKVRRIKLGYTQTNVGEALAAVHGSEFSQTTICRFENLQLSFKNAGKLKAILSKWLEEAE — within error, -0.395 ± 0.062
- RELEKFANEFKVRRIKLGYTQTNVGEALAAVHGSEFSQTTICRFENLQLSFKNANKLKAILSKWLEEAE — higher, -0.201 ± 0.11
- RELEKFANEFKVRRIKLGYTQTNVGEALAAVHGSEFSQTTICRFENLQLSFKNACKLQAILSKWLEEAE — higher, -0.019 ± 0.088
- RELEKFANEFKVRRIKLGYTQTNVGEALAAVHGSEFSQTTICRFENLQLSFKNACKLMAILSKWLEEAE — higher, -0.151 ± 0.059
- LELEKFANEFKVRRIKLGYTQTNVGEALAAVHGSEFSQTTICRFENLQLSFKNACKLKAILSKWLEEAE — within error, -0.306 ± 0.37
- RELEKFANEFKVRRIKLGYTQTNVGEALAAVHGSEFSQTTICRFENLQLSFKNACKLKAIESKWLEEAE — within error, -0.604 ± 0.18
- RELEKFANEFKVRRIKLGYTQTNVGEALAAVHGSEFSQTTICRFENLQLSFKNACKLKAIRSKWLEEAE — lower, -1.04 ± 0.18
- RELEKFANEFKVRRIKLGYTQTNVGEALAAVHGSEFSQTTICRFENLQLSFKNACKLKPILSKWLEEAE — higher, 0.381 ± 0.058
- RELEKFANEFKVRRIKLGYTQTNVGEALAAVHGSEFSQTTICRFENLQLSFKNACKLKMILSKWLEEAE — higher, -0.076 ± 0.064
- RELEKFANEFKVRRIKLGYTQTNVGEALAAVHGSEFSQTTICRFENLQLSFKNACKLKAILSKWLIEAE — within error, -0.281 ± 0.079
- RELEKFANEFKVRRIKLGYTQTNVGEALAAVHGSEFSQTTICRFENLQLSFKNACKLKAILSKWLSEAE — within error, -0.335 ± 0.078
- RELEKFANEFKVRRIKLGYTQTNVGEALAAVHGSEFSQTTICRFENLQLSFKNACKLKAILSKWLREAE — higher, -0.241 ± 0.051
- RELEKFANEFKVRRIKLGYTQTNTGEALAAVHGSEFSQTTICRFENLQLSFKNACKLKAILSKWLEEAE — within error, -0.625 ± 0.34
- RELEKFANEFKVRRIKLGYTQTNRGEALAAVHGSEFSQTTICRFENLQLSFKNACKLKAILSKWLEEAE — lower, -0.931 ± 0.23
- RELEKFANEFKVRRIKLGYTQTNVGEALAAVHGSCFSQTTICRFENLQLSFKNACKLKAILSKWLEEAE — higher, -0.182 ± 0.063
- RELEKFANEFKVRRIKLGYTQTNVGEALAAVHGSHFSQTTICRFENLQLSFKNACKLKAILSKWLEEAE — higher, -0.228 ± 0.089
- RELEKFANEFKVRRIKLGYTQTNVGEALAAVHGSRFSQTTICRFENLQLSFKNACKLKAILSKWLEEAE — higher, -0.208 ± 0.055
- RELEKFANEFKVRRIKLGYTQTNVGEALNAVHGSEFSQTTICRFENLQLSFKNACKLKAILSKWLEEAE — within error, -0.595 ± 0.38
- RELEKFANEFKVRRIKLGYTQTNVGEALWAVHGSEFSQTTICRFENLQLSFKNACKLKAILSKWLEEAE — lower, -0.932 ± 0.27
- RELEKFANEFKVRRIKLGYTQTNVGEALVAVHGSEFSQTTICRFENLQLSFKNACKLKAILSKWLEEAE — lower, -0.87 ± 0.31
- RELEKFANEFKVRRIKLGYTQTNVGEALAAVHGSEFSQTTICRFENLQLSFKNACKVKAILSKWLEEAE — higher, 0.063 ± 0.038
- RELEKFANEFKVRRIKQGYTQTNVGEALAAVHGSEFSQTTICRFENLQLSFKNACKLKAILSKWLEEAE — lower, -0.821 ± 0.26
- RELEKFANEFKVRRIKLGYTHTNVGEALAAVHGSEFSQTTICRFENLQLSFKNACKLKAILSKWLEEAE — higher, -0.164 ± 0.12
- RELEKFANEFKVRRIKLGYTSTNVGEALAAVHGSEFSQTTICRFENLQLSFKNACKLKAILSKWLEEAE — within error, -0.506 ± 0.058
- RELEKFANEFKVRRIKLGYTPTNVGEALAAVHGSEFSQTTICRFENLQLSFKNACKLKAILSKWLEEAE — within error, -0.275 ± 0.092
- RELEKFANEFKVRRIKLGDTQTNVGEALAAVHGSEFSQTTICRFENLQLSFKNACKLKAILSKWLEEAE — within error, -0.696 ± 0.5
- RELEKFANEFKVRRIKLGYTQTNVTEALAAVHGSEFSQTTICRFENLQLSFKNACKLKAILSKWLEEAE — within error, -0.325 ± 0.12
- RELEKFANEFKVRRIKLGYTQTNVGEALAAVHGSEFSQTTICRFENLQLSFKNACKLKARLSKWLEEAE — within error, -0.346 ± 0.066
- RELEKFANEFKVFRIKLGYTQTNVGEALAAVHGSEFSQTTICRFENLQLSFKNACKLKAILSKWLEEAE — within error, -0.872 ± 0.4
- RELEKFANEFKVRRIKLGYTQTNVGEALAAVHGSEFSQTTICRFENLQLSMKNACKLKAILSKWLEEAE — higher, -0.156 ± 0.13
- RELEKFANEFKVRRIKLGYTQTNVGEALAAVHGSEFSQTTICRFENLQLSRKNACKLKAILSKWLEEAE — higher, -0.161 ± 0.041
- RELEKFANEFKVRRIKLGYTQTNVGEALAAVHGSEFVQTTICRFENLQLSFKNACKLKAILSKWLEEAE — lower, -0.833 ± 0.095
- RRLEKFANEFKVRRIKLGYTQTNVGEALAAVHGSEFSQTTICRFENLQLSFKNACKLKAILSKWLEEAE — lower, -0.624 ± 0.091
- RELEKFANEFKVRRIFLGYTQTNVGEALAAVHGSEFSQTTICRFENLQLSFKNACKLKAILSKWLEEAE — lower, -0.909 ± 0.21
- RELEKFAMEFKVRRIKLGYTQTNVGEALAAVHGSEFSQTTICRFENLQLSFKNACKLKAILSKWLEEAE — higher, -0.027 ± 0.11
